B1: U3 small nucleolar RNA-associated protein 6 (Saccharomyces cerevisiae), Q02354 (parent)
chain: MSKTRYYLEQCIPEMDDLVEKGLFTKNEVSLIMKKRTDFEHRLNSRGSSINDYIKYINYESNVNKLRAKRCKRILQVKKTNSLSDWSIQQRIGFIYQRGTNKFPQDLKFWAMYLNYMKARGNQTSYKKIHNIYNQLLKLHPTNVDIWISCAKYEYEVHANFKSCRNIFQNGLRFNPDVPKLWYEYVKFELNFITKLINRRKVMGLINEREQELDMQNEQKNNQAPDEEKSHLQVPSTGDSMKDKLNELPEADISVLGNAETNPALRGDIALTIFDVCMKTLGKHYINKHKGYYAISDSKMNIELNKETLNYLFSESLRYIKLFDEFLDLERDYLINHVLQFWKNDMYDLSLRKDLPELYLKTVMIDITLNIRYMPVEKLDIDQLQLSVKKYFAYISKLDSASVKSLKNEYRSYLQDNYLKKMNAEDDPRYKILDLIISKL
partner: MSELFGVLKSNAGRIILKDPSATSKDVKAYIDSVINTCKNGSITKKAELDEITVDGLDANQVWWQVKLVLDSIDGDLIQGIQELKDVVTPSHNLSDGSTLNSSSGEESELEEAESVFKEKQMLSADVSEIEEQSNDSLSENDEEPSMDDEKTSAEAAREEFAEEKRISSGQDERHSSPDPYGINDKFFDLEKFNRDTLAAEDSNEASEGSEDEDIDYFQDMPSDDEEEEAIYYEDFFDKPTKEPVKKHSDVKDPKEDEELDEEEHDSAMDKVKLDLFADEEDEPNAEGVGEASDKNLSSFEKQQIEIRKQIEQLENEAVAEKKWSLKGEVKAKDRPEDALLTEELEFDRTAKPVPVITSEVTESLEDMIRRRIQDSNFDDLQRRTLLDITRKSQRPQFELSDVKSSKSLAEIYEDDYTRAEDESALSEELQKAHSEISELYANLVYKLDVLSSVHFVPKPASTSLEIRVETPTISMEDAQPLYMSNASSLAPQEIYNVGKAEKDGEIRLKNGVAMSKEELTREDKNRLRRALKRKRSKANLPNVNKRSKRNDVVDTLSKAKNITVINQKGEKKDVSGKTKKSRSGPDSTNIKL
B2: U3 small nucleolar RNA-associated protein 6 (Saccharomyces cerevisiae), Q02354 (parent)
chain: B1 chain
partner: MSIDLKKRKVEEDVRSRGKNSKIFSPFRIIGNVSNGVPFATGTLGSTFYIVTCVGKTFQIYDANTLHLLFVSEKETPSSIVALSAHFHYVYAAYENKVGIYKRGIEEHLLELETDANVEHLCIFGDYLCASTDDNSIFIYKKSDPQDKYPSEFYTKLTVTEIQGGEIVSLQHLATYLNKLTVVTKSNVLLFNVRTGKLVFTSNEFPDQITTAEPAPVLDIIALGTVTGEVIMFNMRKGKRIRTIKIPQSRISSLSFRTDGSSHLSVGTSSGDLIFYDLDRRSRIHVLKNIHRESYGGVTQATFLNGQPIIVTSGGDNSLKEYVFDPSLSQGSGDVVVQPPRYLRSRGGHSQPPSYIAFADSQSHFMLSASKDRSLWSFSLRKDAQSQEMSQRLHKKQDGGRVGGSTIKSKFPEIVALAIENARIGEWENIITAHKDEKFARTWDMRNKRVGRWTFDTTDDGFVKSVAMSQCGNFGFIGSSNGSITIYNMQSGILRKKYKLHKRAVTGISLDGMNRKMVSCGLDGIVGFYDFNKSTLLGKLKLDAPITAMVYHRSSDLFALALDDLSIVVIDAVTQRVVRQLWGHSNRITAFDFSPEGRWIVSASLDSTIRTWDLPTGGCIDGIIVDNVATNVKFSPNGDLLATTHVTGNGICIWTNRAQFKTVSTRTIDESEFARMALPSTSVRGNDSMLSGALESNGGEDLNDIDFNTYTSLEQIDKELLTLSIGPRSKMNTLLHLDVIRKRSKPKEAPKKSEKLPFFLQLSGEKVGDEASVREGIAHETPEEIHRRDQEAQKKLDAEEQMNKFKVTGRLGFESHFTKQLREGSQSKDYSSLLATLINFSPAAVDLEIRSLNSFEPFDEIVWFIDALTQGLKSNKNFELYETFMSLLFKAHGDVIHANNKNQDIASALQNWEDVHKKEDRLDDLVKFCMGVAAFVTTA

Variants of: B1
Conditions: with mpp10_yeast MPP10, P47083

Row | Variant | effect of a mutation on the interaction
1 | G99E | decreasing interaction

Variants of: B2
Conditions: with utp21_yeast UTP21, Q06078

Row | Variant | effect of a mutation on the interaction
2 | G99E | disrupting interaction

— IntAct's records for PubMed 18725399
